# Numbered stars: 1 amine (or outer) side, 2 acyl side, 3 side chain; on linkers, the order of the positions; unused ones are H or OH. Square brackets hold non-standard residues; d marks the D form. Peptide text beside a SMILES is read from it. * marks the point of attachment. DOTA = O=C(O)CN1CCN(CC(=O)O)CCN(CC(=O)*)CCN(CC(=O)O)CC1; Cha = N[C@@H](CC1CCCCC1)C(=O)O; X1 = O=C(CCC(=O)[*:2])CN[*:1]; 4Abz = Nc1ccc(C(=O)O)cc1; Nle = CCCC[C@H](N)C(=O)O
# Assays:
# [1] = biological target: T1, BN/GRP receptor-positive PC3 human prostate cancer cells (Homo sapiens, UniProt P30550); test: Saturation binding assay on PC3 cells; settings: n = 3-5 experiments; for Bmax (apparent number of binding sites per cell): SD < 15%
# T1 construct: BN/GRP receptor-positive MDA-MB-231, MCF7, T47D human breast cancer, and PC3 human prostate cancer lines; host or cells: MDA-MB-231, MCF7, T47D (human breast cancer), PC3 (human prostate cancer); intact cells
# Procedure: The cell binding of ^68Ga-radiolabeled peptides into BN/GRP receptor-positive MDA-MB-231, MCF7, T47D human breast cancer, and PC3 human prostate cancer lines (American Type Culture Collection, Rockville, MD, USA) was performed according to the method described previously. In brief, ∼ 300,000 cells (in 300 μL in low-serum media) were incubated with various amounts of radiopeptides, ranging between 0.1 and 25 nM of peptide (prepared from the serial dilutions of HPLC-purified radiopeptides), in duplicate for 60 min at room temperature. The initial concentrations of ^68Ga-labeled peptides were determined according to a well-established HPLC technique with simultaneous detection by UV absorbance. As the amount of BN peptide in the reaction mixture was too small to be detected by UV absorption at 220 nm, the radioactive peptide chromatograms from the HPLC analysis were compared (with UV chromatograms) with those of known concentrations of the corresponding nonradioactive peptides for the mass determination. Incubation was terminated by dilution with cold saline (300 μL) and the cells were pelleted by centrifugation. The cell pellets was then rapidly washed with cold saline to remove any unbound peptide and centrifuged to collect supernatants. Radioactivity in the cell pellet and the washings was measured in a γ-counter. Non-specific binding was determined in the presence of ~ 200-fold molar excess of unlabeled BN peptide. Specific binding is calculated by subtracting the non-specifically bound radioactivity from that of the total binding. The dissociation constant (Kd) was calculated using a plot of cell bound activity versus the concentration of the radioligand using GraphPad Prism software (GraphPad Software Inc., San Diego, CA, USA).
# in vivo = test: in vivo; design: species or system Balb/c mice; settings: Balb/c, mouse, iv
# Procedure: Approval for the animal protocol used in this study was obtained from the Institutional Animal Care and Use Committee. Animal studies were conducted according to the international regulations governing the safe and proper use of laboratory animals. In vivo biodistribution were performed on healthy Balb/c mice (n = 3–5 in each group, body weight 19–22 g) at 1 and 2 h after intravenous injection of the HPLC-purified radiopeptide (100 μL, 15–20 μCi, total peptide dose ~ 20 ng) via the lateral tail vein. The mice were sacrificed by cervical dislocation at specified time points and blood samples were withdrawn with a syringe from the heart. Major organs such as lungs, stomach, spleen, pancreas, intestines, liver, kidneys, etc. were isolated, weighed, and radioactivity in each organs and tissues were measured using a γ-scintillation counter. Uptake of radioactivity in the tissues and organs was expressed as the percent injected dose per gram (% ID/g) of tissue/organ, which was calculated by comparison with standard solutions representing 10% of the injected dose per animal. For the clearance studies, radioactivity in the urine with bladder and feces is expressed as the percent of the injected dose per tissue (% ID). Values are expressed as mean ± SD for a group of 3-5 animals at each time point.
# MDA-MB-231 tumors = test: in vivo; format: in vivo, nude mice; settings: for Radioactivity in Urine + bladder / Uptake in Blood / Uptake in Intestines (measured without their contents) / Uptake in Kidneys / Uptake in Liver / Uptake in Lungs / Uptake in Muscle / Uptake in Pancreas / Uptake in Spleen / Uptake in Stomach: female, nude, mouse, in vivo; for Uptake in Tumor: nude mice with MDA-MB-231 tumors, mean ± SD, n = 3-5
# Procedure: BN/GRP receptor-positive MDA-MB-231 and PC3 cell lines (American Type Culture Collection, Rockville, USA) were grown as monolayers at 37 °C in a humidified atmosphere containing RPMI-1640 culture media with 10% fetal bovine serum (FBS) in tissue culture flasks. Twenty-four hours prior to conducting the tumor implantation, the media was replaced with RPMI-1640/10% FBS. The cells were grown to 80-90% confluency and harvested by trypsinization. After centrifugation, about 50 million cells were suspended in 1 mL media for implantation into mice. To prepare cells for inoculation, MDA-MB-231 or PC3 cancer cells with media were centrifuged, the media decanted, and the cell pellet was mixed with phosphate-buffered saline (PBS) to reach a concentration of approximately 5 million cells per 100 μL PBS. Human MDA-MB-231 breast cancer xenografts female mouse models were used for in vivo tumor-targeting experiments. For the implantation of tumor xenografts, approximately five million MDA-MB-231 cells in suspension of 100 μL sterile PBS were injected subcutaneously into the left thigh of each mouse. Tumors were allowed to grow for 4-6 weeks by which tumors had reached weights of 200-300 mg. After sufficient growth of tumors, animals were injected with 20-30 μCi of the radiotracers and the animals were sacrificed at specified time points. The uptake of ^68Ga-radiolabeled peptides in the tumors and other major body organs was calculated by γ-counting as described above.
# [2] = total radioactivity, %ID excreted in Feces
# [3] = total radioactivity, Uptake in Bone
# [4] = total radioactivity, Uptake in Intestines (measured without their contents)
# [5] = total radioactivity, Uptake in Kidneys
# [6] = total radioactivity, Uptake in Pancreas
# [7] = total radioactivity, Uptake in Spleen
# [8] = total radioactivity, Uptake in Stomach
smiles,measurement,setting,value
"CCCC[C@H](NC(=O)[C@H](Cc1c[nH]cn1)NC(=O)[C@H](CC1CCCCC1)NC(=O)[C@@H](NC(=O)[C@H](C)NC(=O)[C@H](Cc1c[nH]c2ccccc12)NC(=O)[C@H](CCC(N)=O)NC(=O)[C@H](CS)NC(=O)CNC(=O)CNC(=O)CCC(=O)CNC(=O)CN1CCN(CC(=O)O)CCN(CC(=O)O)CCN(CC(=O)O)CC1)C(C)C)C(=O)N[C@@H](CCSC)C(N)=O [^68Ga-DOTA-ALA-BN Tris-, metal not drawn] ({DOTA}-[X1]GGCQWAV[Cha]H[Nle]M-NH2)",Bmax (apparent number of binding sites per cell),[1],2.63 × 10^5 sites/cell
same,Kd,"[1]; ~300,000 cells, 0.1-25 nM radiopeptide, 60 min, room temperature, mean ± SD",13.5 ± 2.53 nM
same,%ID excreted in Feces,in vivo; 1 h,1.03 ± 0.12 %ID
same,%ID excreted in Urine,in vivo; 1 h,71.0 ± 12.45 %ID
same,Uptake in Blood,in vivo; 1 h,0.88 ± 0.14 %ID/g
same,Uptake in Bone,in vivo; 1 h,0.14 ± 0.03 %ID/g
same,Uptake in Intestines (measured without their contents),in vivo; 1 h,0.85 ± 0.13 %ID/g
same,Uptake in Kidneys,in vivo; 1 h,3.83 ± 0.67 %ID/g
same,Uptake in Liver,in vivo; 1 h,1.78 ± 0.26 %ID/g
same,Uptake in Lungs,in vivo; 1 h,0.42 ± 0.10 %ID/g
same,Uptake in Pancreas,in vivo; 1 h,0.98 ± 0.13 %ID/g
same,Uptake in Spleen,in vivo; 1 h,0.14 ± 0.03 %ID/g
same,Uptake in Stomach,in vivo; 1 h,1.44 ± 0.26 %ID/g
same,%ID excreted in Feces,in vivo; 2 h,0.77 ± 0.10 %ID
same,%ID excreted in Urine,in vivo; 2 h,78.0 ± 15.0 %ID
same,Uptake in Blood,in vivo; 2 h,0.27 ± 0.02 %ID/g
same,Uptake in Bone,in vivo; 2 h,0.08 ± 0.01 %ID/g
same,Uptake in Intestines (measured without their contents),in vivo; 2 h,0.64 ± 0.14 %ID/g
same,Uptake in Kidneys,in vivo; 2 h,2.76 ± 0.49 %ID/g
same,Uptake in Liver,in vivo; 2 h,0.86 ± 0.17 %ID/g
same,Uptake in Lungs,in vivo; 2 h,0.19 ± 0.03 %ID/g
same,Uptake in Pancreas,in vivo; 2 h,0.82 ± 0.12 %ID/g
same,Uptake in Spleen,in vivo; 2 h,0.10 ± 0.02 %ID/g
same,Uptake in Stomach,in vivo; 2 h,0.53 ± 0.09 %ID/g
same,Radioactivity in Urine + bladder,MDA-MB-231 tumors; 1 h,54.0 ± 5.78 % injected dose per tissue
same,Uptake in Blood,MDA-MB-231 tumors; 1 h,0.85 ± 0.15 % ID/g
same,Uptake in Intestines (measured without their contents),MDA-MB-231 tumors; 1 h,1.05 ± 0.18 % ID/g
same,Uptake in Kidneys,MDA-MB-231 tumors; 1 h,5.12 ± 0.69 % ID/g
same,Uptake in Liver,MDA-MB-231 tumors; 1 h,2.31 ± 0.38 % ID/g
same,Uptake in Lungs,MDA-MB-231 tumors; 1 h,2.35 ± 0.33 % ID/g
same,Uptake in Muscle,MDA-MB-231 tumors; 1 h,0.39 ± 0.03 % ID/g
same,Uptake in Pancreas,MDA-MB-231 tumors; 1 h,1.19 ± 0.15 % ID/g
same,Uptake in Spleen,MDA-MB-231 tumors; 1 h,0.44 ± 0.06 % ID/g
same,Uptake in Stomach,MDA-MB-231 tumors; 1 h,0.83 ± 0.21 % ID/g
same,Radioactivity in Urine + bladder,MDA-MB-231 tumors; 2 h,61.0 ± 7.10 % injected dose per tissue
same,Uptake in Blood,MDA-MB-231 tumors; 2 h,0.30 ± 0.04 % ID/g
same,Uptake in Intestines (measured without their contents),MDA-MB-231 tumors; 2 h,0.73 ± 0.13 % ID/g
same,Uptake in Kidneys,MDA-MB-231 tumors; 2 h,3.56 ± 0.50 % ID/g
same,Uptake in Liver,MDA-MB-231 tumors; 2 h,1.50 ± 0.27 % ID/g
same,Uptake in Lungs,MDA-MB-231 tumors; 2 h,0.70 ± 0.16 % ID/g
same,Uptake in Muscle,MDA-MB-231 tumors; 2 h,0.23 ± 0.02 % ID/g
same,Uptake in Pancreas,MDA-MB-231 tumors; 2 h,0.71 ± 0.10 % ID/g
same,Uptake in Spleen,MDA-MB-231 tumors; 2 h,0.35 ± 0.03 % ID/g
same,Uptake in Stomach,MDA-MB-231 tumors; 2 h,0.37 ± 0.07 % ID/g
same,Uptake in Tumor,MDA-MB-231 tumors; 1 h p.i.,1.78 ± 0.40 % ID/g
same,Uptake in Tumor,MDA-MB-231 tumors; 2 h p.i.,1.25 ± 0.21 % ID/g
"CCCC[C@H](NC(=O)[C@H](Cc1c[nH]cn1)NC(=O)[C@H](CC1CCCCC1)NC(=O)[C@@H](NC(=O)[C@H](C)NC(=O)[C@H](Cc1c[nH]c2ccccc12)NC(=O)[C@H](CCC(N)=O)NC(=O)[C@H](CS)NC(=O)CNC(=O)CNC(=O)c1ccc(NC(=O)CN2CCN(CC(=O)O)CCN(CC(=O)O)CCN(CC(=O)O)CC2)cc1)C(C)C)C(=O)N[C@@H](CCSC)C(N)=O [^68Ga-DOTA-Abz-BN Cyclen, metal not drawn] ({DOTA-4Abz}-GGCQWAV[Cha]H[Nle]M-NH2)",Bmax (apparent number of binding sites per cell),[1],4.30 × 10^5 sites/cell
same,%ID excreted in Urine,in vivo; 1 h,70.0 ± 8.60 %ID
same,Uptake in Liver,in vivo; 1 h,0.68 ± 0.16 %ID/g
same,Uptake in Lungs,in vivo; 1 h,0.21 ± 0.05 %ID/g
same,dose excreted at 1 h,in vivo; [2],1.01 ± 0.2%
same,dose excreted at 2 h,in vivo; [2],0.88 ± 0.12%
same,dose excreted at 2 h,"in vivo; total radioactivity, %ID excreted in Urine",62 ± 9.54%
same,tissue uptake at 1 h,"in vivo; total radioactivity, Uptake in Blood",0.4 ± 0.11 %ID/g
same,tissue uptake at 1 h,in vivo; [3],0.13 ± 0.04 %ID/g
same,tissue uptake at 2 h,in vivo; [3],0.09 ± 0.01 %ID/g
same,tissue uptake at 1 h,in vivo; [4],0.85 ± 0.17 %ID/g
same,tissue uptake at 2 h,in vivo; [4],0.53 ± 0.14 %ID/g
same,tissue uptake at 1 h,in vivo; [5],2.96 ± 0.3 %ID/g
same,tissue uptake at 2 h,in vivo; [5],1.88 ± 0.25 %ID/g
same,tissue uptake at 2 h,"in vivo; total radioactivity, Uptake in Liver",0.5 ± 0.07 %ID/g
same,tissue uptake at 1 h,in vivo; [6],1.07 ± 0.13 %ID/g
same,tissue uptake at 2 h,in vivo; [6],0.88 ± 0.11 %ID/g
same,tissue uptake at 1 h,in vivo; [7],0.12 ± 0.02 %ID/g
same,tissue uptake at 2 h,in vivo; [7],0.07 ± 0.01 %ID/g
same,tissue uptake at 1 h,in vivo; [8],1.69 ± 0.24 %ID/g
same,tissue uptake at 2 h,in vivo; [8],0.45 ± 0.1 %ID/g
same,Uptake in Tumor,MDA-MB-231 tumors; 1 h p.i.,1.84 ± 0.40 % ID/g
same,Uptake in Tumor,MDA-MB-231 tumors; 2 h p.i.,1.30 ± 0.37 % ID/g

# From publication PMC6733935, “A convenient and efficient total solid-phase synthesis of DOTA-functionalized tumor-targeting peptides for PET imaging of cancer” (EJNMMI Research, 2019)
